From patent CN115746131A come the findings set out here.

Test [1] deals with 天然类风湿因子RF (natural rheumatoid factor; 北京霍尔姆斯(Holmes)生物技术有限公司, 货号HA129AN). The test can be described thus: indirect ELISA, RF coated, ascites diluted 1:1562500. Background: ELISA stands for enzyme-linked immunosorbent assay.
Test [2] shares this target. Nature of the test: indirect ELISA, RF coated, ascites diluted 1:62500.
The target is the same in test [3]. The test can be described thus: indirect ELISA, RF coated, ascites diluted 1:500.
For test [4] the target is unchanged. The test can be described thus: indirect ELISA, RF coated, ascites diluted 1:2500.
Test [5] shares this target. Nature of the test: indirect ELISA, RF coated, ascites diluted 1:100.
For test [6] the target is unchanged. Nature of the test: indirect ELISA, RF coated, ascites diluted 1:12500.
For test [7] the target is unchanged. Nature of the test: indirect ELISA, RF coated, ascites diluted 1:312500.
Test [8] has as its target 类风湿因子RF in clinical false-positive serum samples 9233354 (RF1) and 9233353 (RF2). The test can be described thus: cell-based or functional assay.

B1: 单克隆抗体anti-blocker-MAB7 (A3-2) (antibody, V domains shown)
VH: VKLQQSGPGLVKPSQSLSLTCTVTGYSITSDYAWNWIRQFPGNKLEWMGYISYSGSTSYNPSLQSRISITRDTSKNQFFLQLNSVTTEDTATYYCARLANWVFDYWGQGTTLTVSS
VL: DIQMTQSPASLSVSVGETVTITCRASENIYSFLAWYQQKQGKSPQLLVYAATNLADGVPSRFSGSGSGTQYSLKINSLQYEDFGSYYCQHFRGTPYTFGGGTRL
For the molecule B1, the ELISA read-out at ascites dilution 1562500 in test [1] stood at 0.195. The ELISA read-out at ascites dilution 62500 in test [2] turned out to be 0.715. For the same molecule, the ELISA read-out at ascites dilution 500 in test [3] came out at 1.82. The ELISA read-out at ascites dilution 2500 in test [4] was 1.52. Further, the ELISA read-out at ascites dilution 100 in test [5] was determined as 2.01. Further, in test [6], the ELISA read-out at ascites dilution 12500 came out at 1.17. Moreover, the ELISA read-out at ascites dilution 312500 in test [7] was found to be 0.461. The 干扰的影响降低 (免疫胶体金平台) in test [8] is 10 倍.
